Test results as given in paper PMC9201815, “Rapid Quantification of C. difficile Glutamate Dehydrogenase and Toxin B (TcdB) with a NanoBiT Split-Luciferase Assay” (Analytical Chemistry, 2022).

B1: Nanobody 7F (VHH)
VHH: QVQLVESGGGLVEAGGSLRLSCVVTGSSFSTSTMAWYRQPPGKQREWVASFTSGGAIKYTDSVKGRFTMSRDNAKKMTYLQMENLKPEDTAVYYCALHNAVSGSSWGRGTQVTVSS
notes: also called TcdB nanobody 7F
B2: C. difficile glutamate dehydrogenase (GDH) (enzyme)
chain: MSGKDVNVFEMAQSQVKNACDKLGMEPAVYELLKEPMRVIEVSIPVKMDDGSIKTFKGFRSQHNDAVGPTKGGIRFHQNVSRDEVKALSIWMTFKCSVTGIPYGGGKGGIIVDPSTLSQGELERLSRGYIDGIYKLIGEKVDVPAPDVNTNGQIMSWMVDEYNKLTGQSSIGVITGKPVEFGGSLGRTAATGFGVAVTAREAAAKLGIDMKKAKIAVQGIGNVGSYTVLNCEKLGGTVVAMAEWCKSEGSYAIYNENGLDGQAMLDYMKEHGNLLNFPGAKRISLEEFWASDVDIVIPAALENSITKEVAESIKAKLVCEAANGPTTPEADEVFAERGIVLTPDILTNAGGVTVSYFEWVQNLYGYYWSEEEVEQKEEIAMVKAFESIWKIKEEYNVTMREAAYMHSIKKVAEAMKLRGWY
B3: Nanobody E3 (VHH)
chain: QVQLVESGGGLVQTGGSLRLSCASSGSIAGFETVTWSRQAPGKSLQWVASMTKTNNEIYSDSVKGRFIISRDNAKNTVYLQMNSLKPEDTGVYFCKGPELRGQGIQVTVSS
notes: also called TcdB nanobody E3

Tests used:
[1] = target: inactivated toxoid B (TxB) (C. difficile, inactivated toxoid (how it was inactivated is not stated)); experiment: SPR; details: both partners purified
[2] = target: Affimer 4; experiment: SPR; biotinylated Affimer/nanobody immobilised on a streptavidin chip, titrated with serial dilutions of analyte; fit to 1:1 Langmuir model
Chain of Affimer 4 (main, as listed by the source): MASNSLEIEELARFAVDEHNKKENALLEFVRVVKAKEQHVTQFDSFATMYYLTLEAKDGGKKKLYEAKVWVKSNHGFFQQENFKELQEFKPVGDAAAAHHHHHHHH

Binder | Kd [1] | koff [1] | kon [1] | Kd [2] | koff [2] | kon [2]
B1 | 33 nM | 0.0009 s⁻¹ | 28000 M⁻¹ s⁻¹ | – | – | –
B2 | – | – | – | 19 nM | 0.00081 s⁻¹ | 44000 M⁻¹ s⁻¹
B3 | 2.5 nM | 0.00025 s⁻¹ | 100000 M⁻¹ s⁻¹ | – | – | –
